Experimental data: article PMC4241754

Biological target: WlbA from Thermus thermophilus (Thermus thermophilus)
Test: crystal structure

WlbA from Thermus thermophilus (enzyme)
stoichiometry N: 4
